# Assay results: US20220064321A1 (published 2022)
# Columns and labels:
# [1] = target: T1, FcγRIIIa(V158) (Sino Biological Inc, 10389-H08C1) (UniProt P08637 17-208); assay: binding ELISA; His-tagged FcγRIIIa captured by anti-His antibody, IgG pre-complexed with goat F(ab')2 anti-human-κ, HRP anti-human F(ab')2 detection
# T1 construct: also called Fc gamma receptor IIIa
# Method: (§1) High protein binding Costar 96-well plates were coated with anti-His antibody (Genscript, A00186) (1 μg/ml, 100 μl/well) in a coating buffer (0.05 M sodium carbonate buffer, pH 9.6) overnight at 4° C. The wells were washed twice with PBS/0.05% Tween 20 (pH 7.4). The plates were blocked with 5% Non-Fat Milk Powder/PBS (pH 7.4) for 1.5 hours at 37′C. Plates were washed and FcγRIIIa (Sino Biological Inc, 10389-H08C1) (1 μg/ml, 100 μl/well) in PBS/0.05% Tween 20, pH 7.4 (assay buffer) was added to the plates. Antibodies were pre-incubated with goat F(ab′)₂anti-human-κ antibody (Sigma) at a 1:2 (w/w) ratio in assay buffer for 1 h to form complex to increase binding avidity. […] After a 2 h incubation, plates were washed and bound IgG was detected by adding horseradish peroxidase (HRP)) labeled goat F(ab′)2 anti-human IgG F(ab′)2 (Sigma). After a final 1 hour incubation, plates were washed and the substrate 3,3′,5,5′-tetramethyl benzidine (TMB) (InnoReagents) was added. The reaction was stopped by adding 1 M phosphoric acid, and the OD was measured at 450 nm using a microplate reader Spectra MAX I3 (Molecular Devices).
# [2] = target: T1, FcγRIIIa(V158) (Sino Biological Inc, …); assay: binding ELISA; His-tagged FcγRIIIa captured by anti-His antibody, IgG pre-complexed with goat F(ab')2 anti-human-κ (value in the text differs from Table 4)
# Method: as §1
# [3] = target: CD16a on effector cells NK92MI-CD16a (UniProt P08637 17-254, limits assumed); assay: cell-based or functional assay
# Chain of CD16a on effector cells NK92MI-CD16a (P08637 17-254 limits assumed): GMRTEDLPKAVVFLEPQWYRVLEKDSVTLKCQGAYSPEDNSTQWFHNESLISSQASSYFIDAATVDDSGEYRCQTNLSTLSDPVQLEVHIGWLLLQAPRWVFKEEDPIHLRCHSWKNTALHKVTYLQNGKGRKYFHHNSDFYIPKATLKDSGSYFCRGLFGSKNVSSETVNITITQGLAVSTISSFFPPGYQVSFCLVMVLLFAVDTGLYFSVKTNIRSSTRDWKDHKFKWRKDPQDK
# T1 sequence (P08637 17-208 F176V limits assumed): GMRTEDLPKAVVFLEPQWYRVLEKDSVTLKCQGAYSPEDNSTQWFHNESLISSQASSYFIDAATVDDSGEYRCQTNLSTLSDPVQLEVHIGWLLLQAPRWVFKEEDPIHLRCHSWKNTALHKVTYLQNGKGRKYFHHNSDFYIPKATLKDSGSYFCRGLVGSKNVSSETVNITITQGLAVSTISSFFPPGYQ
EC50 [1] [ng/mL],EC50 [2] [ng/mL],"ADCC Target cell: Daudi, EC50 [3] [ng/mL]","ADCC Target cell: Raji, EC50 [3] [ng/mL]",Binder
52,55,0.0488,0.00738,"anti-CD20 antibody MIL62 (antibody, human IgG1, kappa, N-glycans on the Fc region, not bisected by N-acetylglucosamine; core-fucosylated glycans 0.43% in the example batch (made in CHOK1-AF cells, Slc35c1 knocked out), In the FcγRIIIa ELISA the IgG was pre-complexed with goat F(ab')2 anti-human-κ antibody at 1:2 (w/w); also called MIL62 antibody; humanized anti-CD20 antibody of the present invention) light: DIVMTQTPLSLPVTPGEPASISCRSSKSLLHSNGITYLYWYLQKPGQSPQLLIYQMSNLVSGVPDRFSGSGSGTDFTLKISRVEAEDVGVYYCAQNLELPYTFGGGTKVEIKRTVAAPSVFIFPPSDEQLKSGTASVVCLLNNFYPREAKVQWKVDNALQSGNSQESVTEQDSKDSTYSLSSTLTLSKADYEKHKVYACEVTHQGLSSPVTKSFNRGEC heavy: not shown"
113,,0.111,0.0143,"GAZYVA® (obinutuzumab) (antibody, human IgG1, kappa, N-glycans on the Fc region, more than 76% bisected by GlcNAc; core-fucosylated glycans 48.03% in the example batch, In the FcγRIIIa ELISA the IgG was pre-complexed with goat F(ab')2 anti-human-κ antibody; also called afutuzumab; GA101) light: DIVMTQTPLSLPVTPGEPASISCRSSKSLLHSNGITYLYWYLQKPGQSPQLLIYQMSNLVSGVPDRFSGSGSGTDFTLKISRVEAEDVGVYYCAQNLELPYTFGGGTKVEIKRTVAAPSVFIFPPSDEQLKSGTASVVCLLNNFYPREAKVQWKVDNALQSGNSQESVTEQDSKDSTYSLSSTLTLSKADYEKHKVYACEVTHQGLSSPVTKSFNRGEC heavy: not shown"
